# Target: the molecule itself
# Experiment: SEC; purified recombinant protein (40 μg in 50 μl) on a TOSOH G2000 SWXL column in hexokinase buffer (20 mM HEPES, 5 mM Mg acetate, 100 mM NaCl, 0.5 mM EDTA, 0.5 mM DTT) without glucose, no ATP, 1 mL/min
protein,measurement,value
"Recombinant Hxk2, wild type, C-terminal 6-histidine tag, from E. coli (enzyme, S. cerevisiae, UniProt P04807 1-486, looked up, Hexokinase 2 (Hxk2) of S. cerevisiae; also called WT Hxk2; wild-type Hxk2; source: E. coli (pET14b), purified (Ni-NTA)) MVHLGPKKPQARKGSMADVPKELMQQIENFEKIFTVPTETLQAVTKHFISELEKGLSKKGGNIPMIPGWVMDFPTGKESGDFLAIDLGGTNLRVVLVKLGGDRTFDTTQSKYRLPDAMRTTQNPDELWEFIADSLKAFIDEQFPQGISEPIPLGFTFSFPASQNKINEGILQRWTKGFDIPNIENHDVVPMLQKQITKRNIPIEVVALINDTTGTLVASYYTDPETKMGVIFGTGVNGAYYDVCSDIEKLQGKLSDDIPPSAPMAINCEYGSFDNEHVVLPRTKYDITIDEESPRPGQQTFEKMSSGYYLGEILRLALMDMYKQGFIFKNQDLSKFDKPFVMDTSYPARIEEDPFENLEDTDDLFQNEFGINTTVQERKLIRRLSELIGARAARLSVCGIAAICQKRGYKTGHIAADGSVYNRYPGFKEKAANALKDIYGWTQTSLDDYPIKIVPAEDGSGAGAAVIAALAQKRIAEGKSVGIIGA",stoichiometry N,2

# — doi:10.1101/2022.11.30.518474 (bioRxiv, 2022)
